Legend:
[1] = molecular target: T1, Human folate receptor alpha (hFOLR1) (human, UniProt P15328 25-234); assay: FACS, CHO-hFOLR1 cells
T1 construct: Stably expressed on CHO cells (CHO-hFOLR1) for flow cytometry; endogenous on FOLR1-positive KB and Igrov1 cells in the killing assay; also called human FOLR1; FolRα
Method: CHO cells were transfected to stably express human (CHO-hFOLR1), cynomolgus (CHO-cFOLR1), or mouse (CHO-mFOLR1) target molecule FOLR1 on the cell surface. Parental CHO cells were used as a negative control to determine background binding levels. Parental CHO and stably transfected CHO-hFOLR1, CHO-cFOLR1, and CHO-mFOLR1 cells were cultured in Ham's F-12: high glucose DMEM (50:50) (Corning, Cellgro-Mediatech) supplemented with 10% heat-inactivated fetal bovine serum (Corning, Cellgro-Mediatech), 1% Penicillin/Streptomycin (Corning, Cellgro-Mediatech) and 2 mmol/L-glutamax (Life Technology).
A mixture of fluoresecent-labeled parental CHO cells and unlabeled CHO-hFOLRlcells were prepared as follows. Parental CHO cells were washed twice in PBS and incubated in PBS containing with 1 nM CellTrace™ Oregon Green488® (Life Technologies) at 37° C. for 30 minutes. Labeled parental CHO cells were then washed 2× with Ham's F-12 media and 2× with FACS buffer (PBS with 1% bovine serum albumin). Unlabeled CHO-hFOLR1 cells were similarly washed and prepared. Labeled parental CHO and unlabeled CHO-hFOLR1 cells were combined at 1:1 ratio and seeded at 50 μL per well (200,000 cells per well) in 96 well polypropylene plates. Cells were mixed with 50 μL of test antibodies (i.e., anti-FOLR1 variants) serially diluted in FACS buffer and incubated on ice for 60 mins. Cells were washed with FACS buffer and incubated on ice for 60 mins with 100 μL FACS buffer containing 2.5 μg/mL R-Phycoerythrin-conjugated goat anti-Human IgG (Jackson ImmunoResearch Laboratories, West Grove, Pa.). Cells were washed twice with FACS buffer, fixed in 2% paraformaldehyde in PBS (Santa Cruz Biotechnology; Dallas, Tex.) for 10 mins on ice in the dark, and analyzed using the BD LSR II Flow Cytometer (BD Biosciences; San Jose, Calif.). Data were analyzed using FlowJo® software (FlowJo, LLC; Ashland, Oreg.) to determine mean fluorescence intensities. Binding constants were calculated using the statistical software, GraphPad Prism (GraphPad Software; La Jolla, Calif.) using the nonlinear regression equation, one site-specific binding with Hill slope. Secondary antibody alone was used as a control, in addition to measuring non-specific antibody binding to CHO parental cells.

[2] = molecular target: T2, Murine folate receptor alpha (mouse, UniProt P35846 25-232); assay: FACS, CHO-mFOLR1 cells
T2 construct: Stably expressed on CHO cells (CHO-mFOLR1); also called mouse FOLR1; CHO-mFOLR1

[3] = molecular target: T3, Cynomolgus folate receptor alpha (cynomolgus monkey, UniProt P15328 25-234 (human entry)); assay: FACS, CHO-cFOLR1 cells
T3 construct: Stably expressed on CHO cells (CHO-cFOLR1); also called cynomolgus FOLR1; CHO-cFOLR1
T3 sequence (P15328 other isoform, or with tags, fused parts or gaps limits assumed): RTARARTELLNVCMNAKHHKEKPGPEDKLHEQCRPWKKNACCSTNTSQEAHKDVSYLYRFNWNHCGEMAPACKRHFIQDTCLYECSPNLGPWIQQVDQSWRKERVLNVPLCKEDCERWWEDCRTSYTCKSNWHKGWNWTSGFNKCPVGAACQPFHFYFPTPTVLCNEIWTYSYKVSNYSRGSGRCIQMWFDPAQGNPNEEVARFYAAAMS

T2 sequence (P35846 25-232 limits assumed): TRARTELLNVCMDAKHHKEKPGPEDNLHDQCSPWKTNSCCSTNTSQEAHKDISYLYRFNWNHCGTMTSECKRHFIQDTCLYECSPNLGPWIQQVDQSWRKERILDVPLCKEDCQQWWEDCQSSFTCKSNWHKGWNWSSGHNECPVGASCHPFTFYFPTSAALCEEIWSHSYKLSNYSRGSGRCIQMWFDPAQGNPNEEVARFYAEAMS
T1 sequence (P15328 25-234 limits assumed): as the sequence (P15328 other isoform, or with tags, fused parts or gaps limits assumed) above, with T2I, R4W, K37R, R117Q, P146A, Y171H counted along it

Bmax [1] [MFI]	Bmax [2] [MFI]	Bmax [3] [MFI]	Binder
26900	2740	26400	SRP1848-F04 (antibody, V domains shown, VH/VL only; Fc-bearing IgG format with trastuzumab LC, HIS/FLAG-tagged, cell-free expressed; constant regions not tied; also called Antibody 39) VH: EVQLVESGGGLVQPGGSLRLSCAASGFNISNYSIHWVRQAPGKGLEWVGEIYPIDGITDYADSVKGRFTISADTSKNTAYLQMNSLRAEDTAVYYCARGSWFWRSGYGYYLDYWGQGTLVTVSS VL: not shown
29200	9650	23600	SRP1848-A07 (antibody, V domains shown, VH/VL only; Fc-bearing IgG format with trastuzumab LC, HIS/FLAG-tagged, cell-free expressed; constant regions not tied; also called Antibody 5) VH: EVQLVESGGGLVQPGGSLRLSCAASGFNIGYHSIHWVRQAPGKGLEWVGEIFPVDGTTDYADSVKGRFTISADTSKNTAYLHMNSLRAEDTAVYYCARGFWAWRSGYGYYLDYWGQGTLVTVSS VL: not shown
27100	10200	14800	SRP1848-A10 (antibody, V domains shown, VH/VL only; Fc-bearing IgG format with trastuzumab LC, HIS/FLAG-tagged, cell-free expressed; constant regions not tied; also called Antibody 8) VH: EVQLVESGGGLVQPGGSLRLSCAASGFNIRKYSIHWARQAPGKGLEWVGDIFPIDDITDYADSVKGRFTISADTSKNTAYLQMNSLRAEDTAVYYCARGSWSWPSGHSYYLDYWGQGTLVTVSS VL: not shown
26500	–	21000	SRP1848-F08 (antibody, V domains shown, VH/VL only; Fc-bearing IgG format with trastuzumab LC, HIS/FLAG-tagged, cell-free expressed; constant regions not tied; also called Antibody 43) VH: EVQLVESGGGLVQPGGSLRLSCAAGGFNISNHSIHWVRQAPGKGVEWVGEIYPVDGITDYADSVKGRFTISADTSKNTAYLRMNSLRAEDTAVYYCARGSWYWQSGYSYYLDYWGQGTLVTVSS VL: not shown
25600	–	26500	SRP1848-F06 (antibody, V domains shown, VH/VL only; Fc-bearing IgG format with trastuzumab LC, HIS/FLAG-tagged, cell-free expressed; constant regions not tied; also called Antibody 41) VH: EVQLVESGGGLVQPGGSLRLSCAASGFNISLSYIHWVRQAPGKGLEWVGGISPIDGNTDYADSVKGRFTISADTSKNTAYLQMNSLRAEDTAVYYCARGFWAWRSGYGYYLDYWGQGTLVTVSS VL: not shown
28900	7990	20200	SRP1848-A09 (antibody, V domains shown, VH/VL only; Fc-bearing IgG format with trastuzumab LC, HIS/FLAG-tagged, cell-free expressed; constant regions not tied; also called Antibody 7) VH: EVQLVESGGGLVQPGGSLRLSCAASGFNIRKQSIHWVRQAPGKGLEWVGSIFPNDGTTDYADSVKGRFTISADTSKNTAYLQVNSLRAEDTAVYYCARGSWFWRSGYGYFLEYWGQGTLVTVSS VL: not shown
25000	–	21300	SRP1848-D09 (antibody, V domains shown, VH/VL only; Fc-bearing IgG format with trastuzumab LC, HIS/FLAG-tagged, cell-free expressed; constant regions not tied; also called Antibody 29) VH: EVQLVESGGGLVQPGGSLRLSCAASGFNISNYYIHWVRQAPGKGLEWVGGISPNDGYTDYADSVKGRFTISADTSKNTAYLQMNSLRAEDTAVYYCARGSWSWRHGYGYYLDYWGQGTLVTVSS VL: not shown
26600	3400	23900	SRP1848-B01 (antibody, V domains shown, VH/VL only; Fc-bearing IgG format with trastuzumab LC, HIS/FLAG-tagged, cell-free expressed; constant regions not tied; also called Antibody 9) VH: EVQLVESGGGLVQPGGSLRLSCAASGFNIRNYSIHWVRQAPGKGLEWVGEIYPVDGITDYADSVKGRFTISADTSKNTAYLQMNSLRAEDTAVYYCARGFWSWPSGYSYFLDYWGQGTLVTVSS VL: not shown
27800	2190	27800	SRP1848-B04 (antibody, V domains shown, VH/VL only; Fc-bearing IgG format with trastuzumab LC, HIS/FLAG-tagged, cell-free expressed; constant regions not tied; also called Antibody 11) VH: EVQLVESGGGLVQPGGSLRLSCAASSFNISNHSIHWVRQAPGKGLEWVGEIYPVDGITDYADSVKGRFTISADTSKNTAYLQMNSLRAEDTAVYYCARGRYSWRAGYSYYLDYWGQGTLVTVSS VL: not shown
26400	–	22400	SRP1848-E01 (antibody, V domains shown, VH/VL only; Fc-bearing IgG format with trastuzumab LC, HIS/FLAG-tagged, cell-free expressed; constant regions not tied; also called Antibody 31) VH: EVQLVESGGGLVQPGGSLRLSCAASGFNITNKYIHWVRQAPGKGLEWVGGITPFDGFTDYADSVKGRFTISADTSKNTAYLQMNSLRAEDTAVYYCARGSWSWPAGYGYYQDYWGQGTLVTVSS VL: not shown
25700	–	24300	SRP1848-D07 (antibody, V domains shown, VH/VL only; Fc-bearing IgG format with trastuzumab LC, HIS/FLAG-tagged, cell-free expressed; constant regions not tied; also called Antibody 28) VH: EVQLVESGGGLVQPGGSLRLSCAASGFNISKYYIHWVRQAPGKGLEWVGGISPNDGYTDYADSVKGRFAISADTSKNTAYLQMNSLRAEDTAVYYCARGFWAWRSGYGYYLDYWGQGTLVTVSS VL: not shown
24500	–	21900	SRP1848-B05 (antibody, V domains shown, VH/VL only; Fc-bearing IgG format with trastuzumab LC, HIS/FLAG-tagged, cell-free expressed; constant regions not tied; also called Antibody 12) VH: EVQLVESGGGLVQPGGSLRLSCAASGFNISNYYIHWVRQAPGKGLEWVGGISPIDGYTDYADSMKGRFTISADTSKNTAYLQMSSLRAEDTAVYYCARGSWFWQSGYGYYLDYWGQGTLVTVSS VL: not shown
27300	–	28200	SRP1848-E05 (antibody, V domains shown, VH/VL only; Fc-bearing IgG format with trastuzumab LC, HIS/FLAG-tagged, cell-free expressed; constant regions not tied; also called Antibody 34) VH: EVQLVESGGGLVQPGGSLRVSCAASGFNIGVYYIHWVRQAPGKGLEWVGGITPNDGYTDYADSVKGRFTISADTSKNTAYLQMNSLRAEDTAVYYCARGFWAWRSGYGYYLDYWGQGTLVTVSS VL: not shown
25200	1420	25200	SRP1848-B09 (antibody, V domains shown, VH/VL only; Fc-bearing IgG format with trastuzumab LC, HIS/FLAG-tagged, cell-free expressed; constant regions not tied; also called Antibody 15) VH: EVQLVESGGGLVQPGGSLRLSCAAGGFNITNYYIHWVRQAPGKGLEWVGGITPVDGYTDYADRVKGRFTISADTSKNTAYLQMNSLRAEDTAVYYCARGAWSWRSGYGYYMDYWGQGTLVTVSS VL: not shown
24500	2770	20200	SRP1848-A06 (antibody, V domains shown, VH/VL only; Fc-bearing IgG format with trastuzumab LC, HIS/FLAG-tagged, cell-free expressed; constant regions not tied; also called Antibody 4) VH: EVQLVESGGGLVQPGGSLRLSCAASGFNIGNSYIHWVRQAPGKGLEWVGGITPIDGNTDYADSVKGRFTISADTSKNTAYLQMNSLRAEDTAVYYCARGAWSWRSGYGYYIDYWGQGTLVTVSS VL: not shown
26300	2720	17200	SRP1848-B03 (antibody, V domains shown, VH/VL only; Fc-bearing IgG format with trastuzumab LC, HIS/FLAG-tagged, cell-free expressed; constant regions not tied; also called Antibody 10) VH: EVQLVESGGGLVQPGGSLRLSCAASGFNISMKYIHWVRQAPGKGLEWVGGITPIDGMTDYADSVKGRFTISADTSKNTAYLQMNSLRAEDTAVYYCARGSWSWPSGYSYYLDYWGQGTLVTVSS VL: not shown
26800	3890	23100	SRP1848-A04 (antibody, V domains shown, VH/VL only; Fc-bearing IgG format with trastuzumab LC, HIS/FLAG-tagged, cell-free expressed; constant regions not tied; also called Antibody 3) VH: EVQLVESGGGLVQPGGSLRLSCAASGFNIDQSSIHWVRQAPGKGLEWVGVIYPVDGTTDYADSVKGRFTISADTSKNTAYLQMNSLRAEDTAVYYCARGAWSWRSGYGYYIDYWGQGTLVTVSS VL: not shown
29300	–	25700	SRP1848-D04 (antibody, V domains shown, VH/VL only; Fc-bearing IgG format with trastuzumab LC, HIS/FLAG-tagged, cell-free expressed; constant regions not tied; also called Antibody 26) VH: EVQLVESGGGLVQPGGSLRLSCAASGFNISHYSIHWVRQAPGKGLEWVGEIYPRDGITDYADSVKGRFTISADTSKNTAYLQMNSLSAEDTAVYYCARGYWFWRSGYGYYLDYWGQGTLVTVSS VL: not shown
28600	3200	26200	SRP1848-A08 (antibody, V domains shown, VH/VL only; Fc-bearing IgG format with trastuzumab LC, HIS/FLAG-tagged, cell-free expressed; constant regions not tied; also called Antibody 6) VH: EVQLVESGGGLVQPGGSLRLSCAASGSNIRKHSIHWVRQAPGKGLEWVGSIYPNDGTTDYADSVKGRFTISADTSKNTAYLQMNSLRAEDTAVYYCARGSWFWRAGYGYYLDYWGQGTLVTVSS VL: not shown
25600	–	25500	SRP1848-B07 (antibody, V domains shown, VH/VL only; Fc-bearing IgG format with trastuzumab LC, HIS/FLAG-tagged, cell-free expressed; constant regions not tied; also called Antibody 14) VH: EVQLVESGGGLVQPGGSLRLSCAASGFNISRFYIHWVRQAPGKGLEWVGGISPYDGFTDYADSVKGRFTISADTSKNTAYLQMNSLRAEDTAVYYCARGSWSWPAGYGYYQDYWGQGTLVTVSS VL: not shown
25100	–	26800	SRP1848-B06 (antibody, V domains shown, VH/VL only; Fc-bearing IgG format with trastuzumab LC, HIS/FLAG-tagged, cell-free expressed; constant regions not tied; also called Antibody 13) VH: EVQLVESGGGLVQPGGSLRLSCAASGFNISNYYIHWVRQAPGKGLEWVGGITPIDGYTDYADSVKGRFTISADTSKNTAYLQMNSLRAEDTAVYYCARGFWSWPSGYGYYQDYWGQGTLVTVSS VL: not shown
